Experiment [1] concerns the target T1, GST-41.8 kD protein (KIAA0751) PDZ domain fusion protein (Mus musculus (Mouse), UniProt Q9EQZ7 682-763).
T1 construct: also called 41 kd; hypoth; not shown: glutathione S-transferase encoded by vector pGEX-3X (Pharmacia)
T1 sequence: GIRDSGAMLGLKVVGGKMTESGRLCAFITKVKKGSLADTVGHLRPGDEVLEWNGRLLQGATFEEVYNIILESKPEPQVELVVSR
The experiment in a line: G assay: biotinylated peptide on plate-bound GST-PDZ fusion, streptavidin-HRP, OD 450 nm.

For experiment [2], the target named is T2, GST-PSD95 fusion protein (PDZ domains 1-3) (human, UniProt P31016 56-395 (rat entry)).
T2 construct: also called human post-synaptic density protein 95; not shown: glutathione S-transferase encoded by vector pGEX-3X (Pharmacia)
T2 sequence (P31016 other isoform, or with tags, fused parts or gaps): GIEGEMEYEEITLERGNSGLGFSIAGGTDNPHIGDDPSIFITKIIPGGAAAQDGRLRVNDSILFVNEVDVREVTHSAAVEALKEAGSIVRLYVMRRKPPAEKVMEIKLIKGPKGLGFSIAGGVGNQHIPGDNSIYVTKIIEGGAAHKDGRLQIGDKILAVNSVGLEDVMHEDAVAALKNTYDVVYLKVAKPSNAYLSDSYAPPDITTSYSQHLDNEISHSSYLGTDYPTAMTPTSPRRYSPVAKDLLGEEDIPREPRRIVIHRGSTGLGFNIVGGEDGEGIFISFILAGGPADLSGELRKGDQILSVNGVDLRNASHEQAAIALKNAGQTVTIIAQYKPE
The experiment in a line: G assay: biotinylated peptide on plate-bound GST-PDZ fusion, OD 450 nm.

Experiment [3] deals with T3, GST-DLG5 (p-dlg) PDZ domain fusion protein (Human, UniProt Q8TDM6 1343-1583).
T3 construct: also called Human discs large protein p-dlg; not shown: glutathione S-transferase encoded by vector pGEX-3X (Pharmacia)
T3 sequence: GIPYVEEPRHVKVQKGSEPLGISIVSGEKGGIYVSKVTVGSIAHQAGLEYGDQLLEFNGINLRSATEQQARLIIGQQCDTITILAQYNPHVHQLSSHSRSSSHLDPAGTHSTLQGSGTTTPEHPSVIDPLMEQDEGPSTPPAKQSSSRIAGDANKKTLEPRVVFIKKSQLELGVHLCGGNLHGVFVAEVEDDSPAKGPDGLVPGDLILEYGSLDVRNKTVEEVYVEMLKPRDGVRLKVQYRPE
The experiment in a line: A/G assays.

The target of experiment [4] is T1, GST-41.8 kD protein (KIAA0751) PDZ …. The experiment in a line: A/G plate assays, Table 2 matrix.
The target in experiment [5] is T4, GST-KIAA0303 PDZ domain fusion protein (Homo sapiens (Human), UniProt O15021 1138-1228).
T4 construct: also called K303; not shown: glutathione S-transferase encoded by vector pGEX-3X (Pharmacia)
T4 sequence: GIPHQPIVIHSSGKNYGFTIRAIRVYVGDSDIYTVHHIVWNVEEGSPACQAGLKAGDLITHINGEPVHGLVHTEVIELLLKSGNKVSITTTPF
Kind of experiment: A/G plate assays, Table 2 matrix.

The target of experiment [6] is T5, KIAA0807 (PDZ domain)-GST fusion protein (human, UniProt Q6P0Q8 1104-1192).
T5 construct: also called K807; KIAA807; not shown: glutathione S-transferase encoded by vector pGEX-3X (Pharmacia)
T5 sequence: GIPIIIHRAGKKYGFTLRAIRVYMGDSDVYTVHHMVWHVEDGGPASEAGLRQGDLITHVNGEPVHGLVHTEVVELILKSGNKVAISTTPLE
The experiment in a line: A/G plate assays, Table 2 matrix.

The target of experiment [7] is T6, GST-TIAM1 PDZ domain fusion protein (Homo sapiens (Human), UniProt Q13009 845-931).
T6 construct: also called TLAM1; T-lymphoma invasion and metastasis inducing protein 1; not shown: glutathione S-transferase encoded by vector pGEX-3X (Pharmacia)
T6 sequence (Q13009 other isoform, or with tags, fused parts or gaps): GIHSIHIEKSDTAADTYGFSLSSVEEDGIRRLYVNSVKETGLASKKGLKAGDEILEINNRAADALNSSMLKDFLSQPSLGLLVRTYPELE
Kind of experiment: A/G plate assays, Table 2 matrix.

Experiment [8] has as its target T2, GST-PSD95 fusion protein (PDZ domains …). The experiment in a line: A/G assays.
The target in experiment [9] is T7, GST-RGS12 PDZ domain fusion protein (human, UniProt O14924 17-85).
T7 construct: also called human regulator of G-protein signalling 12; not shown: glutathione S-transferase encoded by vector pGEX-3X (Pharmacia)
T7 sequence: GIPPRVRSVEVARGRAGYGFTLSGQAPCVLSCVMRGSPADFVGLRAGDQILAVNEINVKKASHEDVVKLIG
Kind of experiment: A/G plate assays, Table 2 matrix.

Experiment [10] addresses T8, GST-AF6 PDZ domain fusion protein (Homo sapiens (Human), UniProt P55196 1001-1093).
T8 construct: also called af-6 protein; not shown: glutathione S-transferase encoded by vector pGEX-3X (Pharmacia)
T8 sequence: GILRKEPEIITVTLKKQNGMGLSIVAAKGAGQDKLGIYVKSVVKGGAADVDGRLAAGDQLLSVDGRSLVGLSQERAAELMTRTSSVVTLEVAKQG
The experiment in a line: A/G plate assays, Table 2 matrix.

Experiment [11] has as its target T9, GST-LIM protein PDZ domain fusion protein (Human, UniProt Q96HC4 2-85).
T9 construct: also called Human LIM protein; not shown: glutathione S-transferase encoded by vector pGEX-3X (Pharmacia)
T9 sequence: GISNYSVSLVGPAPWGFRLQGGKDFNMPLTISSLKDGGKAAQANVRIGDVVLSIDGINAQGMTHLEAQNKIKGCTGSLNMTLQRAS
The experiment in a line: A/G plate assays, Table 2 matrix.

The target in experiment [12] is T2, GST-PSD95 fusion protein (PDZ domains …). Kind of experiment: G assay: biotinylated peptide on plate-bound GST-PDZ fusion, streptavidin-HRP, OD 450 nm.
Experiment [13] addresses T1, GST-41.8 kD protein (KIAA0751) PDZ …. Kind of experiment: G assay: biotinylated peptide on plate-bound GST-PDZ fusion, OD 450 nm; no GST-alone bar on the sheet.
For experiment [14], the target named is T10, GST-PTN-4 PDZ domain fusion protein (Homo sapiens (Human), UniProt P29074 517-605).
T10 construct: also called protein-tyrosine phosphatase meg1; not shown: glutathione S-transferase encoded by vector pGEX-3X (Pharmacia)
T10 sequence: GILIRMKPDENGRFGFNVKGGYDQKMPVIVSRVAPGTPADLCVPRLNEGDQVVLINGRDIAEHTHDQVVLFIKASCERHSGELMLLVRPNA
The experiment in a line: A/G plate assays, Table 2 matrix.

For experiment [15], the target named is T2, GST-PSD95 fusion protein (PDZ domains …). Kind of experiment: A/G plate assays, Table 2 matrix.
For experiment [16], the target named is T1, GST-41.8 kD protein (KIAA0751) PDZ …. Kind of experiment: A/G assays.
In experiment [17] the target is T2, GST-PSD95 fusion protein (PDZ domains …). The experiment in a line: G assay titration of biotinylated peptide on plate-bound GST-PDZ, apparent affinity from saturation fit.

Ends that are not written are not given here. * marks the point of attachment. Biotin = O=C1N[C@H]2[C@H](CS[C@H]2CCCCC(=O)*)N1

Take Biotin-PYGTAMEKAQLKPPATSDA (also called CD49E (alpha-4)) [CD49E C-terminal peptide AA11L, biotinylated]: the binding result in [1] was “binds”; in [2], “no binding”; in experiment [3] it was “no binding”.

For Biotin-ARKANMKGSYSLVEAQKSKV (also called CD106) [VCAM1 C-terminal peptide AA17L, biotinylated], the binding result in [4] was “binds”; in experiment [5], “binds”; in [6] it was “binds”; in experiment [7] it was “binds”; in experiment [3], “no binding”; in experiment [8] it was “no binding”.

For the molecule Biotin-TREDIYVNYPTFSRRPKTRV [DNAM-1 C-terminal peptide AA22L, biotinylated], the binding result is recorded as “binds” in experiment [9]; “binds” in experiment [4]; “binds” in [10]; “binds” in experiment [11]; “binds” in experiment [12]; “no binding” in experiment [3].

With Biotin-VTSPNKHLGLVTPHKTELV [CD83 C-terminal peptide AA47L, biotinylated], the binding result in experiment [13] was “no binding”; in experiment [12] it was “binds”; in experiment [3], “no binding”.

B1: Spectrin (beta) C-terminal peptide AA32L, biotinylated (peptide)
peptide: Biotin-SFPPCGHRENVPGQSLVSFV
notes: Marked (S), sticky; also called Spectrin beta (S); Spectrin β
Consider B1, for which the binding result is on record as “binds” in experiment [10]; “binds” in experiment [14]; “binds” in experiment [5]; “binds” in [6]; “binds” in experiment [15]; “no binding” in experiment [16].

Regarding Biotin-SVFSIPTLWSPWPPSSSSQL (also called CD3η; CD3-eta) [CD3n C-terminal peptide AA4L, biotinylated], the binding result is recorded as “binds” in experiment [6], “binds” in experiment [15], “binds” in experiment [1] and “no binding” in experiment [3].

For the molecule Biotin-QGDPALQDAGDSSRKEYFI (also called GC) [Glycophorin C C-terminal peptide AA37L, biotinylated], the binding result in experiment [4] is given as “binds”; in [10] it was “binds”; in [15], “binds”; in experiment [3], “no binding”.

For the molecule Biotin-TTNNNPNSAVNIKKIFTDV [KV1.3 C-terminal peptide AA33L, biotinylated], the binding result is “binds” in experiment [9]; “binds” in [4]; “binds” in experiment [6]; “binds” in experiment [12]; “no binding” in experiment [3].

Take Biotin-EVICYIEKPGVETLEDSVF [CDW125 (IL5R) C-terminal peptide AA28L, biotinylated]: the binding result in experiment [9] is “binds”; in experiment [14], “binds”; in experiment [16], “no binding”; in [3] it was “no binding”; in experiment [8] it was “no binding”.

As to Biotin-ISGTPTSTMVHGMTSSSSVV [Clasp-2 C-terminal peptide AA2L, biotinylated], in [17], the Kd stood at 45 µM. Also, the binding result in [3] is “no binding”.

B2: CD138 C-terminal peptide AA18L, biotinylated (peptide)
peptide: Biotin-PKQANGGAYQKPTKQEEFYA
notes: also called CD138 (syndecan-1); CD138 (syndecan)
On to B2, for which the binding result was “binds” in [7], “binds” in [1], “no binding” in [2] and “no binding” in [3].

Regarding Biotin-KDITSDSENSNFRNEIQSLV (also called CD95 (Apo-1/Fas); AAI3L) [CD95 (Fas) C-terminal peptide AA13L, biotinylated], the Kd in experiment [17] was determined as 85 µM. Also, the binding result in [1] is “binds”; in experiment [3], “no binding”.

For the molecule Biotin-STNHSIGSTQSTPCSTSSMA (also called CD105 (endoglin)) [CD105 C-terminal peptide AA16L, biotinylated], the binding result in experiment [11] is listed as “binds”; in [16], “no binding”; in experiment [3] it was “no binding”; in [8], “no binding”.

The values are drawn from US20050037969A1 (ARBOR VITA, published 2005).
